Assay [1] has as its target eHead_H1Solomon (wild-type H1 head domain monomer) (influenza A virus) (UniProt B4URD6). Briefly: SPR. In general terms: In SPR one partner is held on a chip, and binding of the other changes the refractive index at the surface.
The target in assay [2] is eHead-H3HK68_v1 (wild-type H3 head domain monomer) (influenza A virus) (UniProt Q91MA7). Briefly: SPR.
Assay [3] concerns the target H7 HA A/New York/107/2003, recombinant (influenza A virus).
Assay [4] has as its target A/Duck/Czechoslovakia/1956 (Influenza A virus). Briefly: ELISA on coated recombinant HA; row printed A/Duck/Czechoslovakia/1958. (In general: ELISA stands for enzyme-linked immunosorbent assay.)
Assay [5] deals with H1 HA A/Solomon Islands/03/2006 (H1N1), recombinant soluble trimer (influenza A virus). Briefly: ELISA.
In assay [6] the target is H14 HA A/mallard duck/Astrakhan/263/1982, recombinant (influenza A virus). Briefly: ELISA.
Assay [7] deals with H5 HA A/Vietnam/1203/2004 (H5N1), recombinant (influenza A virus). Briefly: ELISA.
The target of assay [8] is H2 HA A/Singapore/1/1957, recombinant soluble trimer (influenza A virus). Briefly: ELISA.
The target of assay [9] is H9 HA A/Hong Kong/1073/99, recombinant (influenza A virus). Briefly: ELISA.
The target in assay [10] is H7 HA A/New York/107/2003, recombinant (influenza A virus). Briefly: ELISA.
For assay [11], the target named is H3 HA A/Texas/50/2012, recombinant soluble trimer (influenza A virus). Kind of assay: ELISA.
Assay [12] addresses H1 HA A/Texas/36/1991 (H1N1), recombinant soluble trimer (influenza A virus). Kind of assay: ELISA.
Assay [13] concerns the target H5 HA A/Indonesia/05/2005 (H5N1), recombinant (influenza A virus). Kind of assay: ELISA.
The target in assay [14] is H3 HA A/Minnesota/11/10, recombinant soluble trimer (influenza A virus). Kind of assay: ELISA.
Assay [15] concerns the target H7 HA A/Shanghai/2/2013 (H7N9), recombinant uncleaved trimer (influenza A virus). Kind of assay: ELISA.
In assay [16] the target is H13 HA A/gull/Maryland/704/1977, recombinant (influenza A virus). Briefly: ELISA.
The target in assay [17] is H3 HA A/Switzerland/9715293/2013, recombinant soluble trimer (influenza A virus). Briefly: ELISA.
Assay [18] deals with H16 HA A/black-headed gull/Sweden/4/1999, recombinant (influenza A virus). Kind of assay: ELISA.
In assay [19] the target is H1 HA A/Solomon Islands/03/2006 (H1N1), recombinant soluble trimer (influenza A virus). Kind of assay: ELISA on coated recombinant HA.
The target of assay [20] is A/Duck/Czechoslovakia/1956 (Influenza A virus). Briefly: ELISA on coated recombinant HA.
Assay [21] concerns the target H14 HA A/mallard duck/Astrakhan/263/1982, recombinant (influenza A virus). Briefly: ELISA on coated recombinant HA.
The target of assay [22] is H12 HA A/duck/Alberta/60/1976, recombinant (influenza A virus). Briefly: ELISA on coated recombinant HA.
In assay [23] the target is H5 HA A/Vietnam/1203/2004 (H5N1), recombinant (influenza A virus). Briefly: ELISA on coated recombinant HA.
In assay [24] the target is A/Fort Monmouth/1/1947 (Influenza A virus). Briefly: ELISA on coated recombinant HA.
Assay [25] concerns the target A/Chicken/Germany/N/1949 (Influenza A virus). Briefly: ELISA on coated recombinant HA.
Assay [26] concerns the target H2 HA A/Singapore/1/1957, recombinant soluble trimer (influenza A virus). Briefly: ELISA on coated recombinant HA.
The target of assay [27] is H15 HA A/shearwater/Western Australia/2576/1979, recombinant (influenza A virus). Briefly: ELISA on coated recombinant HA.
Assay [28] addresses A/Turkey/Wisconsin/1/1966 (Influenza A virus). Briefly: ELISA on coated recombinant HA.
Assay [29] deals with H3 HA A/Texas/50/2012, recombinant soluble trimer (influenza A virus). Briefly: ELISA on coated recombinant HA.
For assay [30], the target named is A/Taiwan/2/2013 (Influenza A virus). Briefly: ELISA on coated recombinant HA.
The target in assay [31] is H1 HA A/Texas/36/1991 (H1N1), recombinant soluble trimer (influenza A virus). Kind of assay: ELISA on coated recombinant HA.
The target of assay [32] is H5 HA A/Indonesia/05/2005 (H5N1), recombinant (influenza A virus). Kind of assay: ELISA on coated recombinant HA.
Assay [33] has as its target H7 HA A/Shanghai/2/2013 (H7N9), recombinant uncleaved trimer (influenza A virus). Briefly: ELISA on coated recombinant HA.
Assay [34] has as its target A/California/07/2004 (Influenza A virus). Kind of assay: ELISA on coated recombinant HA.
Assay [35] concerns the target H1 HA A/Texas/36/1991 (H1N1), recombinant soluble trimer (influenza A virus). Briefly: ELISA on coated recombinant HA; row printed A/Texas/38/1991.
In assay [36] the target is H5 HA A/Vietnam/1203/2004 (H5N1), recombinant (influenza A virus). Briefly: ELISA on coated recombinant HA. The source holds these as a separate data set.
The target of assay [37] is A/Tennessee/3/2019 (Influenza A virus). Kind of assay: ELISA on coated recombinant HA.
For assay [38], the target named is H2 HA A/Singapore/1/1957, recombinant soluble trimer (influenza A virus). Kind of assay: ELISA on coated recombinant HA. This is another data set of the same source.
The target in assay [39] is A/Turkey/Ontario/6118/1967 (Influenza A virus). Briefly: ELISA on coated recombinant HA.
For assay [40], the target named is A/Puerto Rico/8/1934 (Influenza A virus). Kind of assay: ELISA on coated recombinant HA.
The target of assay [41] is A/Yokohama/110/2019 (Influenza A virus). Kind of assay: ELISA on coated recombinant HA.
The target in assay [42] is H3 HA A/Texas/50/2012, recombinant soluble trimer (influenza A virus). Kind of assay: ELISA on coated recombinant HA. The source holds these as a separate data set.
The target in assay [43] is A/Taiwan/2/2013 (Influenza A virus). Briefly: ELISA on coated recombinant HA. This is another data set of the same source.
The target in assay [44] is H5 HA A/Indonesia/05/2005 (H5N1), recombinant (influenza A virus). Briefly: ELISA on coated recombinant HA. The source holds these as a separate data set.
Assay [45] deals with A/Hong Kong/125/2017 (Influenza A virus). Briefly: ELISA on coated recombinant HA.
For assay [46], the target named is purified HA protein of H1N1 A/California/07/2009 (Sino Biological 11085-V08B) (influenza A virus). Kind of assay: cell-based or functional assay.
In assay [47] the target is H12 HA A/duck/Alberta/60/1976, recombinant (influenza A virus). Briefly: ELISA on coated recombinant HA. This is another data set of the same source.
The target in assay [48] is H3 HA A/Hong Kong/1/1968 (H3N2), recombinant soluble trimer (influenza A virus) (UniProt Q91MA7). Briefly: ELISA on coated recombinant HA.
The target of assay [49] is H3 HA A/Victoria/3/1975 (H3N2) (influenza A virus). Briefly: BLI, biotinylated HA on streptavidin sensor. (In BLI a coated tip is dipped into the sample, and binding shifts an interference pattern.)
Assay [50] concerns the target H1 HA A/Solomon Islands/03/2006 (H1N1), recombinant soluble trimer (influenza A virus). Briefly: BLI, biotinylated HA on streptavidin sensor.
Assay [51] concerns the target H5 HA A/Vietnam/1203/2004 (H5N1), recombinant (influenza A virus). Kind of assay: BLI, biotinylated HA on streptavidin sensor.
Assay [52] deals with H3 HA A/Victoria/361/2011 (H3N2) (influenza A virus). Briefly: BLI, biotinylated HA on streptavidin sensor.
Assay [53] has as its target H5 HA A/Indonesia/05/2005 (H5N1), recombinant (influenza A virus). Kind of assay: BLI, biotinylated HA on streptavidin sensor.
In assay [54] the target is H12 HA A/duck/Alberta/60/1976, recombinant (influenza A virus). Briefly: ELISA.
Assay [55] concerns the target H15 HA A/shearwater/Western Australia/2576/1979, recombinant (influenza A virus). Briefly: ELISA.

As a reminder, the Kd is the equilibrium constant for the complex coming apart. What is called EC50 is the midpoint of the concentration-response curve.

Where two headings read alike, the source gives them in different places.

C05 (antibody): the dissociation constant (Kd) amounted to 86 nM in assay [1] and 170 nM in assay [2].

As to CH65 (antibody), the equilibrium dissociation constant (Kd) in assay [1] was found to be 340 nM.

For the substance “FluA-20 (hybridoma-produced IgG) (antibody)”, the EC50 in [3] was over 2.5 µg/mL; in assay [4], 0.006 µg/mL; in assay [5] it was 0.005 µg/mL; in [6], 0.013 µg/mL; in assay [7], 0.283 µg/mL; in assay [8], 0.007 µg/mL. Also, the EC50 was 0.009 µg/mL in [9]; 0.808 µg/mL in assay [10]; 0.004 µg/mL in [11]; 0.004 µg/mL in assay [12]; 0.085 µg/mL in assay [13]; over 10 µg/mL in assay [14]. In addition, the half-maximal effective concentration (EC50) in assay [15] was 0.066 µg/mL; in [16] it was 0.07 µg/mL; in assay [17], 0.019 µg/mL; in [18], over 10 µg/mL; in assay [19] it was 0.008 µg/mL; in [20], 0.007 µg/mL. Further, the concentration giving a half-maximal response (EC50) in assay [21] stood at 0.007 µg/mL; in assay [22] it was 0.006 µg/mL; in assay [23] it was 0.142 µg/mL; in assay [24] it was 0.007 µg/mL; in assay [25], 0.037 µg/mL; in assay [26] it was 0.009 µg/mL. Further, the EC50 was determined as 0.007 µg/mL in [27]; 0.022 µg/mL in assay [28]; 0.006 µg/mL in assay [29]; 0.061 µg/mL in assay [30]; 0.009 µg/mL in assay [31]; 0.016 µg/mL in [32]. In addition, the 50% effective concentration (EC50) stood at 0.012 µg/mL in assay [33]; 0.008 µg/mL in assay [34]; 0.021 µg/mL in [35]; 0.036 µg/mL in [36]; 0.007 µg/mL in [37]; 0.007 µg/mL in assay [38]. The EC50 was 0.004 µg/mL in assay [39]; 0.005 µg/mL in [40]; 0.009 µg/mL in assay [41]; 0.008 µg/mL in [42]; 0.073 µg/mL in [43]; 0.015 µg/mL in assay [44]. The concentration for a half-maximal effect (EC50) in assay [45] amounted to 0.009 µg/mL. The same substance displayed an NK cell activation (% of NK cells with IFN-γ and/or CD107a) at 0.1 µg/mL FluA-20 in [46] of 1.3%. In addition, in assay [46], the NK cell activation (% of NK cells with IFN-γ and/or CD107a) at 1 µg/mL FluA-20 was 9.2%. This substance also displayed an NK cell activation (% of NK cells with IFN-γ and/or CD107a) at 10 µg/mL FluA-20 in [46] of 14.6%.

For the substance MEDI-8852 (antibody), the EC50 in assay [3] worked out at 0.117 µg/mL; in [4] it was 0.018 µg/mL; in assay [35], 0.063 µg/mL; in [47], 0.361 µg/mL; in [48] it was 0.014 µg/mL; in assay [36] it was 0.009 µg/mL. Besides, the EC50 in assay [37] worked out at 0.014 µg/mL; in [38], 0.023 µg/mL; in [39], 0.081 µg/mL; in [40], 0.013 µg/mL; in assay [41], 0.043 µg/mL; in assay [42] it was 0.024 µg/mL. Further, the 50% effective concentration (EC50) amounted to 0.157 µg/mL in assay [43], 0.134 µg/mL in [44] and 0.069 µg/mL in [45].

As for rFluA-20 Fab, the dissociation constant (Kd) in [49] was 3460 nM; in assay [50], 2 nM; in [51] it was 122 nM; in [52] it was 15 nM; in assay [53], 88 nM.

As for “rFluA-20 IgG (recombinant FluA-20) (antibody)”, the EC50 in assay [5] stood at 0.008 µg/mL; in [6] it was 0.007 µg/mL; in assay [54], 0.006 µg/mL; in assay [8], 0.011 µg/mL; in [9] it was 0.007 µg/mL; in [55], 0.007 µg/mL. Also, the EC50 in [11] came to 0.007 µg/mL; in assay [12], 0.008 µg/mL; in assay [13] it was 0.016 µg/mL; in [15] it was 0.013 µg/mL; in [19], 0.008 µg/mL; in assay [20], 0.007 µg/mL. Moreover, the EC50 in assay [21] worked out at 0.007 µg/mL; in assay [22], 0.006 µg/mL; in assay [23], 0.133 µg/mL; in assay [24], 0.007 µg/mL; in assay [25] it was 0.041 µg/mL; in assay [26], 0.011 µg/mL. Also, the half-maximal effective concentration (EC50) amounted to 0.007 µg/mL in assay [27]; 0.016 µg/mL in assay [28]; 0.007 µg/mL in assay [29]; 0.063 µg/mL in assay [30]; 0.008 µg/mL in assay [31]; 0.016 µg/mL in assay [32]. The concentration for a half-maximal effect (EC50) in assay [33] is 0.013 µg/mL; in assay [34], 0.009 µg/mL.
